From patent publication US20070243303, “Methods and Means for Regulating Gene Expression” (Friesland Brands B.V., published 2007)

Legend:
CodY (native, in cell) [1] = molecular target: T1, CodY (native, in cell) (Lactococcus lactis subsp. cremoris …, UniProt A2RHP2 A2RHP2:1-262); assay: cell_activity; conditions: 8-fold for prtM::lacZ; less than 2-fold in codY mutant; scale: fold repression
T1 sequence: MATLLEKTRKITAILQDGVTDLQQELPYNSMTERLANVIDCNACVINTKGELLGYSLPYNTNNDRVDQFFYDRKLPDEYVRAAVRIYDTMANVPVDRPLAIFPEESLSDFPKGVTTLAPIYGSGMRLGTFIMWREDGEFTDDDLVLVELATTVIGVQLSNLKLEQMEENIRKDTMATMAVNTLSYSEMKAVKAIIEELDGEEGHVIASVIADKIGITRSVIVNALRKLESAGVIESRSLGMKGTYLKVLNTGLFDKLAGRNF

CodY (H6-CodY) [2] = molecular target: T2, CodY (H6-CodY) (Lactococcus lactis subsp. cremoris …, UniProt A2RHP2 A2RHP2:1-262); assay: EMSA; 20 or 200 ng H6-CodY; conditions: tags: N-terminal His6 (pNH6CodY, nisin-induced in L. lactis NZ9000, Ni-NTA); chain copies: multimer, dimer or tetramer by cross-linking (stated); label: 32P 5'-end
T2 sequence: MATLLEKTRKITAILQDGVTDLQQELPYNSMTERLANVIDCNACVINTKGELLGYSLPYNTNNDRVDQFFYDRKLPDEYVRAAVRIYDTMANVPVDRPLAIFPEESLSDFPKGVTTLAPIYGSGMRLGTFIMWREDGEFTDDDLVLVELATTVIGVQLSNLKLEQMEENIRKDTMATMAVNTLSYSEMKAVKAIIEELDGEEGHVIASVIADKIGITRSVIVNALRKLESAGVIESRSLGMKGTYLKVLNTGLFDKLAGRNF
Description: (§1) Gel retardation experiments were carried out essentially as described by Ebbole and Zalkin (Ebbole et al., 1989). Purified PCR products (2 μg) were end-labelled with polynucleotide kinase (Amersham Pharmacia Biotech) for 1 h at 37° C. using 30 μCi [γ-³²P]-ATP (Amersham Pharmacia Biotech) in a volume of 20 μl. Reactions were stopped by incubating the mixtures for 10 min at 70° C. Binding studies were carried out in 20 μl reaction volumes containing 20 mM Tris-HCl (pH 8.0), 8.7% (v/v) glycerol, 1 mM EDTA (pH 8.0), 5 mM MgCl₂, 100 mM KCL, 0.5 mM DTT, labelled DNA fragment (3000 cpm), and purified His6-CodY protein (50-400 ng). BSA (1 μg) and poly(dI-dC) (Amersham Pharmacia Biotech) were added to the reaction mixtures in order to reduce non-specific interactions. After incubation for 15 min at 30° C., samples were loaded onto a 4% polyacrylamide gel. Electrophoresis was performed in the Protean II Minigel System (Bio Rad Laboratories B. V., Veenendaal, The Netherlands) using a gradient (0.5× to 2×) of TAE buffer (Sambrook, Fritsch, and Maniatis, 1989) at 150 V for 1.5 h. Gels were dried and used for autoradiography at −80° C. using Kodak XAR-5 films and intensifying screens.
The upstream oppD region contains a small sequence that is inversely repeated with a spacing of 9 base pairs in between (FIG. 1). This region of dyad symmetry is located just upstream of the −35 promoter sequence. […]

CodY (H6-CodY) [3] = molecular target: T2, CodY (H6-CodY); assay: EMSA; affinity order WT > opp15(a) > opp15(b); conditions: tags: N-terminal His6 (pNH6CodY, nisin-induced in L. lactis NZ9000, Ni-NTA); chain copies: multimer, dimer or tetramer by cross-linking (stated); label: 32P 5'-end
Source text: (§2) The fact that H6-CodY was unable to form a protein-DNA complex when a probe was used that lacks the upstream arm of this IR (probe 1 in FIG. 3) implies that this area might serve as an operator site for CodY on PoppD. To study this region in more detail, site directed mutations were introduced by PCR using combinations of oligonucleotide opp1 with oligonucleotides opp14 (WT), opp15(a), opp(15b) or opp2, respectively (FIG. 4A). The PCR products were ligated upstream of the promoterless lacZ reporter gene in pORI13 and introduced into L. lactis LL108. […] When the unchanged half-site was replaced by an unrelated sequence (an XbaI endonuclease site, present in opp2), repression was reduced approximately 30-fold (in cells growing exponentially in rich medium) and H6-CodY binding was completely abolished (as shown in FIG. 3).
(§3) FIG. 4D: Promoter activity of PoppD variants. L. lactis LL108 strains carrying the lacZ reporter plasmids were grown in GM17 medium. Cells were harvested in the exponential phase of growth and β-galactosidase activity was measured (solid bars). […] Open bars indicate a quantitative representation of the DNA binding assay shown in panel C. The relative binding affinity of H6-CodY for the PoppD variants was calculated by comparing the intensity of the shifted, H6-CodY bound complexes with the total radioactive signal in each lane in the presence of 100 ng protein.

CodY (H6-CodY) [4] = molecular target: T2, CodY (H6-CodY); assay: EMSA; multiple retarded bands, four with 10-100 ng; 5 mM MgCl2, 100 mM KCl, pH 8.0, 30 C; Ile (0.6 or 2.5 mM) stimulates, Val/Leu 0.6 mM reduce shift and 2.5 mM give; conditions: tags: N-terminal His6 (pNH6CodY, nisin-induced in L. lactis NZ9000, Ni-NTA); chain copies: multimer, dimer or tetramer by cross-linking (stated); label: 32P 5'-end
Description: as §1, with “Binding studies were carried out in 20 μl reaction volumes containing 20 mM Tris-HCl (pH 8.0), 8.7% (v/v) glycerol, 1 mM EDTA (pH 8.0), 5 mM MgCl₂, 100 mM KCL, 0.5 mM DTT, labelled DNA fragment (3000 cpm), and purified His6-CodY protein (50-400 ng).” left out
In order to examine whether L. lactis CodY directly interacts with upstream DNA sequences of its main target known so far, oppD, in vitro DNA binding studies were performed. For this purpose, histidine-tagged CodY was overexpressed using the nisin inducible gene expression system (Kuipers et al., 1998) and subsequently purified to apparent homogeneity. A radioactively labeled PCR fragment spanning the oppD upstream region (FIG. 1) was used as a probe. […]

CodY (H6-CodY) [5] = molecular target: T2, CodY (H6-CodY); assay: EMSA; no binding at any protein amount; conditions: tags: N-terminal His6 (pNH6CodY, nisin-induced in L. lactis NZ9000, Ni-NTA); chain copies: multimer, dimer or tetramer by cross-linking (stated); label: 32P 5'-end
Description: BSA (1 μg) and poly(dI-dC) (Amersham Pharmacia Biotech) were added to the reaction mixtures in order to reduce non-specific interactions. After incubation for 15 min at 30° C., samples were loaded onto a 4% polyacrylamide gel. Electrophoresis was performed in the Protean II Minigel System (Bio Rad Laboratories B. V., Veenendaal, The Netherlands) using a gradient (0.5× to 2×) of TAE buffer (Sambrook, Fritsch, and Maniatis, 1989) at 150 V for 1.5 h. Gels were dried and used for autoradiography at −80° C. using Kodak XAR-5 films and intensifying screens.
The upstream oppD region contains a small sequence that is inversely repeated with a spacing of 9 base pairs in between (FIG. 1). This region of dyad symmetry is located just upstream of the −35 promoter sequence. To determine whether this region is important for the interaction with CodY, a stepwise deletion analysis of the oppD upstream region was performed. Radioactively labeled deletion fragments of the region, obtained by PCR, were incubated with H6-CodY. […]
Different parts of the oppD promoter region were amplified by PCR (panel A), radioactively labelled and incubated with no (lanes 1), 20 ng (lanes 2) or 200 ng (lanes 3) of His6-CodY protein, respectively (panel B). […] Cells were harvested in the exponential phase of growth and β-galactosidase activity was measured (solid bars). […]

CodY (native, in cell) [6] = molecular target: T1, CodY (native, in cell); assay: cell_activity; lacZ reporter in L. lactis LL108
Source text: as §2, §3

“prtP/prtM intergenic region BGMN1-5 (330 bp)” showed an activity (CodY (native, in cell) [1]) of 6.

B1: oppD probe 2 (-111 to +75) (dsDNA)
DNA 1: ATGTTCAGAAAATTCATGAACAT
DNA 2: ATGTTCATGAATTTTCTGAACAT
B1: binds (CodY (H6-CodY) [2]).

B2: opp14 WT oppD fragment (154 bp) (dsDNA)
DNA 1: ATGTTCAGAAAATTCATGAACAT
DNA 2: ATGTTCATGAATTTTCTGAACAT
B2: binds (CodY (H6-CodY) [3]).

B3: oppD promoter fragment opp162 (probe 3, opp1-opp3 PCR) (dsDNA)
DNA 1: ATGTTCAGAAAATTCATGAACAT
DNA 2: ATGTTCATGAATTTTCTGAACAT
B3: binds (CodY (H6-CodY) [4]).

B4: oppD probe 1 / opp2 (160 bp, upstream arm removed) (dsDNA)
DNA 1: AACTGCAGGAAAATTCATGAACATACC
DNA 2: GGTATGTTCATGAATTTTCCTGCAGTT
B4: no binding (CodY (H6-CodY) [5]).

B5: opp15(b) mutant oppD fragment (154 bp) (dsDNA)
DNA 1: AACTGCAGCGTACTGTGCCGAAAATTCATGAACATACC
DNA 2: GGTATGTTCATGAATTTTCGGCACAGTACGCTGCAGTT
In the case of B5, the activity (CodY (native, in cell) [6]) is reported as > 20 fold derepression vs WT.

B6: opp15(a) mutant oppD fragment (154 bp) (dsDNA)
DNA 1: AACTGCAGCGTAATATTTAGAAAATTCATGAACATACC
DNA 2: GGTATGTTCATGAATTTTCTAAATATTACGCTGCAGTT
Work on B6 yielded an activity (CodY (native, in cell) [6]) of ~7 fold derepression vs WT.
